Measurements from paper PMC11390681.

Tested on: F4 (K88) fimbriae on intact ETEC strain SP11 cells (Escherichia coli (ETEC-F4+, strain SP11))
Assay: whole-cell binding with qPCR quantification of eluted aptamer
Conditions: 138 mM NaCl, 20 mM Tris-HCl pH 7.4, 2.7 mM KCl, 1 mM CaCl2, 0.5 mM MgCl2, 0.1 mg/mL salmon sperm DNA, 30 min at 37 C, 500 rpm, washes with 0.05% Tween 20

| Sequence | Kd (intact SP11 cells, about 10^8 CFU/mL, 1 mM CaCl2, 0.5 mM MgCl2) | Kd |
| --- | --- | --- |
| CGTACGGTCGACGCTAGCACACTCTTTTGCTCGTGTTTTTGCCTGTTACATAAAATGAATCAGTGGATGTTTCCTTCTCACGTGGAGCTCGGATCC [Apt31] | 81.8 nM | – |
| CGTACGGTCGACGCTAGCGGAGACCGTACCATCTGTTCGTGGAAGCGCTTTGCTCGTCCATTAGCCTTGTGCTCGTGCCACGTGGAGCTCGGATCC [Apt37] | – | 50.8 nM |
